Experimental data reported in US20250262210A1 (TRUSTEES OF COLUMBIA UNIVERSITY IN THE CITY OF NEW YORK, published 2025).

Key:
Test in all cases: IP/MS, LZTR1 wild type-FLAG, U87
RTTN = RTTN (human, UniProt Q86VV8 1-2226, limits assumed)
Summary of the method: (§1)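 Gel slices were reduced with 5 mM DTT, alkylated with 11 mM IAA and digested overnight at 37° C. with trypsin. Peptides were analysed on an Orbitrap Fusion Tribrid by LC-MS/MS.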

ALPK2 = ALPK2 (human, UniProt Q86TB3 1-2170)
Summary of the method: as §1

ARHGAP31 = ARHGAP31 (human, UniProt Q2M1Z3 1-1444)
Summary of the method: as §1

ARFGEF1 = ARFGEF1 (human, UniProt Q9Y6D6 1-1849)
Summary of the method: as §1

TRRAP = TRRAP (human, UniProt Q9Y4A5 2-3859, limits assumed)
Summary of the method: as §1

USP4 = biological target: T1, USP4 (human, UniProt Q13107 1-963, limits assumed)
T1 sequence (looked up): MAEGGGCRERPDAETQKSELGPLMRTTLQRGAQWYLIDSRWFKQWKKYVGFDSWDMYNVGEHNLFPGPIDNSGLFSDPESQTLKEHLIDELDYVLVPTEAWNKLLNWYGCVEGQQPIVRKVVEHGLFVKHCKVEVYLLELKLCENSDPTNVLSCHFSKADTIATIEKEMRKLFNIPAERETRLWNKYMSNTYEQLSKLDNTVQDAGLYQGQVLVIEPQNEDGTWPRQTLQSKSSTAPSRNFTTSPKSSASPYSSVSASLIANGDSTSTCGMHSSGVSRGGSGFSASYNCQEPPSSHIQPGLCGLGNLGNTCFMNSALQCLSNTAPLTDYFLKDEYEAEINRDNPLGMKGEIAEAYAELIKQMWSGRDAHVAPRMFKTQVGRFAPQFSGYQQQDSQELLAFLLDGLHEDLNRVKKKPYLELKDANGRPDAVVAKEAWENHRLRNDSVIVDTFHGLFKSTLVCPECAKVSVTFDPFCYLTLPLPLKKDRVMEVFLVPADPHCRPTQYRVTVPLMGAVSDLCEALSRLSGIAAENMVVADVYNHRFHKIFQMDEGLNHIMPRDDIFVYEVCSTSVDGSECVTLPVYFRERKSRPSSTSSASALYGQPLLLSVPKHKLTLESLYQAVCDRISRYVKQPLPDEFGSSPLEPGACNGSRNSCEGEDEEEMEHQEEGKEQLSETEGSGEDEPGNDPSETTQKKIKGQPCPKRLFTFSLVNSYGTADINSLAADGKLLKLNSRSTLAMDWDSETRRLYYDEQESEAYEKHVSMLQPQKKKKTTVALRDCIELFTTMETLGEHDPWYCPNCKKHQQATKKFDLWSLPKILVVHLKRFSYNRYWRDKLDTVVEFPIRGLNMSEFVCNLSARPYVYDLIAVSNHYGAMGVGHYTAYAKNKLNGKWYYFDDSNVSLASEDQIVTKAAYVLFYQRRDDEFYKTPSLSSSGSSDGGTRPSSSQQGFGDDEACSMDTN
Summary of the method: as §1

Sequence of ARFGEF1 (Q9Y6D6 whole entry): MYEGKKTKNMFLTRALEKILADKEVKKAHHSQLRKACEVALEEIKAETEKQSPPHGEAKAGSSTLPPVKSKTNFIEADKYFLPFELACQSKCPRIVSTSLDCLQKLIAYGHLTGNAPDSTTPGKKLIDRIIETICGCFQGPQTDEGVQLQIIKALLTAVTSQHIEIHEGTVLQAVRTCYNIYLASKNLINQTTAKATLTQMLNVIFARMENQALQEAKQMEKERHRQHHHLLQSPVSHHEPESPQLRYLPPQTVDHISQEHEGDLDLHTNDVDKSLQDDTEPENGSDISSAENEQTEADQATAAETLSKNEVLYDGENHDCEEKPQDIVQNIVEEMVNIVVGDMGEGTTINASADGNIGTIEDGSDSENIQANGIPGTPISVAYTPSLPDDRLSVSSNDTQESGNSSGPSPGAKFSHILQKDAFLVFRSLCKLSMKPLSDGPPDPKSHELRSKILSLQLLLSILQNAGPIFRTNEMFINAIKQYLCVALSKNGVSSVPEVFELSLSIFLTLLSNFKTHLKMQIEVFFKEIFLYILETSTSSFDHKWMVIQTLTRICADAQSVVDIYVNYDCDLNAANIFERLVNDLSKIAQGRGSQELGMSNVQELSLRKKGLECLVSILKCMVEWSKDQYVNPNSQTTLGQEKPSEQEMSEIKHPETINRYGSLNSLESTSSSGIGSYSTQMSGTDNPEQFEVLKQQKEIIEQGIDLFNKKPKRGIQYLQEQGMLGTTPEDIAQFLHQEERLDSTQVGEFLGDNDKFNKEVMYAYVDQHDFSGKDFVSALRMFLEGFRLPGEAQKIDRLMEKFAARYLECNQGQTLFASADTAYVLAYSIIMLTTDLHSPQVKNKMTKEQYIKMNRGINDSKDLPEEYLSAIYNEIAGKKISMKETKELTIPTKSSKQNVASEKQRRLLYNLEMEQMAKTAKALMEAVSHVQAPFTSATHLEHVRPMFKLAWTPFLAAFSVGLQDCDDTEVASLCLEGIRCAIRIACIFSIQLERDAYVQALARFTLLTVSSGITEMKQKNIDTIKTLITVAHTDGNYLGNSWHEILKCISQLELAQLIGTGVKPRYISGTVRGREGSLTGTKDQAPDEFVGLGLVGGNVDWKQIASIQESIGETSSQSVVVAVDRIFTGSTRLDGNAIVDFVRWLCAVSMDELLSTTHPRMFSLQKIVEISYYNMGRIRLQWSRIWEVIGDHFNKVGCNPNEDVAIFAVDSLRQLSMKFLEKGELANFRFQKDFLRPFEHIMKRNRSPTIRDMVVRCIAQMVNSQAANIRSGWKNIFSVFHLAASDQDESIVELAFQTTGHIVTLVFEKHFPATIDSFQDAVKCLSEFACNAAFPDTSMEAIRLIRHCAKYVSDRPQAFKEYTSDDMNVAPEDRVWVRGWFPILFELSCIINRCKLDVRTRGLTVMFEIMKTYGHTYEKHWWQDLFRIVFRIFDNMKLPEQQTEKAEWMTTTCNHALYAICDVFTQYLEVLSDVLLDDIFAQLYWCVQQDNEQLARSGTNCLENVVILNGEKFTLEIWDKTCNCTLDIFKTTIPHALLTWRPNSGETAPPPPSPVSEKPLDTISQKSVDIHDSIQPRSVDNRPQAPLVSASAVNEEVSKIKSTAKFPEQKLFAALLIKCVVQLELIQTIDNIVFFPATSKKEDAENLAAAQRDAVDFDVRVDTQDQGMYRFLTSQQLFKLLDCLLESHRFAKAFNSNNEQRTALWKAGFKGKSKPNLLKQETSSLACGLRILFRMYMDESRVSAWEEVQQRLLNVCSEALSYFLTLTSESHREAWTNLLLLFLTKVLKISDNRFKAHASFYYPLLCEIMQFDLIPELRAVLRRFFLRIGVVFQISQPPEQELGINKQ
Sequence of RTTN (Q86VV8 whole entry, the tested form may be a part): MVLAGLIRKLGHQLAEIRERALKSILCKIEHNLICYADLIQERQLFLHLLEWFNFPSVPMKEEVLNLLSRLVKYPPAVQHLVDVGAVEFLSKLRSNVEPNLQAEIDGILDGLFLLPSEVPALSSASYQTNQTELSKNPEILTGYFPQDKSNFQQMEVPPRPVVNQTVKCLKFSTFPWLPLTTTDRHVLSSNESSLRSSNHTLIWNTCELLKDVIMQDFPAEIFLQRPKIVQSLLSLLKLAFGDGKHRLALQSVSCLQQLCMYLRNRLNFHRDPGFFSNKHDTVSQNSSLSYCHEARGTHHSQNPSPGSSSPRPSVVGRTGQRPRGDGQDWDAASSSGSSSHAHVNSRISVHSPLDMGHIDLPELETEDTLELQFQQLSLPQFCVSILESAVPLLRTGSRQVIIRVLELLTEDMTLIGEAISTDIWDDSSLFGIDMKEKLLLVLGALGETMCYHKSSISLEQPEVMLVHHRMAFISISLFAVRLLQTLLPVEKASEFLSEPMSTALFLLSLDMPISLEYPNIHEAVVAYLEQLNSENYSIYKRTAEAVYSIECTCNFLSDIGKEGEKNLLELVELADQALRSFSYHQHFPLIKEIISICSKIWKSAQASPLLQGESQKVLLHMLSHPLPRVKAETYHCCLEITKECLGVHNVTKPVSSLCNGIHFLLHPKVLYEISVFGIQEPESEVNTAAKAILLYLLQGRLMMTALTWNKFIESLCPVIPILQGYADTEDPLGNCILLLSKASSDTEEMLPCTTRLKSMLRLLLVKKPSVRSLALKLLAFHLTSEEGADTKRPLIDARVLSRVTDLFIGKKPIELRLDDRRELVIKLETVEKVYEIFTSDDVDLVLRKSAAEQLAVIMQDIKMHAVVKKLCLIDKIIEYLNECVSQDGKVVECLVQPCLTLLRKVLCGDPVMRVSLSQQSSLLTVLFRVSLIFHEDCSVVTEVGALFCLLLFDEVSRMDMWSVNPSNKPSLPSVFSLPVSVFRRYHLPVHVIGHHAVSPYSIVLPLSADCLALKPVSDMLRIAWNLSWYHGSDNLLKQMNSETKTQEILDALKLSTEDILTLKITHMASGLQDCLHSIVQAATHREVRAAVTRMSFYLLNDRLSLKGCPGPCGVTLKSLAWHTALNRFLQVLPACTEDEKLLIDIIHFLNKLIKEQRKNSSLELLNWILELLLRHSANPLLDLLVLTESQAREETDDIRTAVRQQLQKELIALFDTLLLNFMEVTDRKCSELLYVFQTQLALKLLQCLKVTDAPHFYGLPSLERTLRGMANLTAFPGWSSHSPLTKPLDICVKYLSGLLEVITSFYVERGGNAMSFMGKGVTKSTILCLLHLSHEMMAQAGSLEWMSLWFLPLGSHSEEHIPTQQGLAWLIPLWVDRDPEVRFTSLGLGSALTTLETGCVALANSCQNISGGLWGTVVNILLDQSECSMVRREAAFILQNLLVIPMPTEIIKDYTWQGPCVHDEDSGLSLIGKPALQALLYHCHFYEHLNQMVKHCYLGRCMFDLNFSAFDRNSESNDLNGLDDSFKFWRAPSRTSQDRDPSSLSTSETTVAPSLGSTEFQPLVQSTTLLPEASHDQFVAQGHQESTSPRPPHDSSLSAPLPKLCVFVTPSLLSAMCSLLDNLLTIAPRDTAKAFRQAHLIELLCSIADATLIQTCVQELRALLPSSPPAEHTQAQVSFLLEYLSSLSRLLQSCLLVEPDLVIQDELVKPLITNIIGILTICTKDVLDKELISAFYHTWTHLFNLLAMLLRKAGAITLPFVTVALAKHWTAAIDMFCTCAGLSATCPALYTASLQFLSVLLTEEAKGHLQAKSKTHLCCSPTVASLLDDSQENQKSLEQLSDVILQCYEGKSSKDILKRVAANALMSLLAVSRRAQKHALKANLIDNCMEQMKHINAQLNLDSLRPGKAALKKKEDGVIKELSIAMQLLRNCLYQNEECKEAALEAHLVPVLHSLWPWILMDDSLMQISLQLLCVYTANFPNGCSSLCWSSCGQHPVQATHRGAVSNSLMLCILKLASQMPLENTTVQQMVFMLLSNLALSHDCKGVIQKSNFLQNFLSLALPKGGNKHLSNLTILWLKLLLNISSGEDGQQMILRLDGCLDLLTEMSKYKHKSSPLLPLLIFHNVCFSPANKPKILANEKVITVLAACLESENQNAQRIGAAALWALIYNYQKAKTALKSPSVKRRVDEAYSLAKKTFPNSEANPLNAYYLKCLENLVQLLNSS

binding result (RTTN): binds
binding result (ALPK2): binds
binding result (ARHGAP31): binds
binding result (ARFGEF1): binds
binding result (TRRAP): binds
binding result (USP4): binds
B1: LZTR1-FLAG (other, human, UniProt Q8N653 1-840, looked up)
chain: MAGPGSTGGQIGAAALAGGARSKVAPSVDFDHSCSDSVEYLTLNFGPFETVHRWRRLPPCDEFVGARRSKHTVVAYKDAIYVFGGDNGKTMLNDLLRFDVKDCSWCRAFTTGTPPAPRYHHSAVVYGSSMFVFGGYTGDIYSNSNLKNKNDLFEYKFATGQWTEWKIEGRLPVARSAHGATVYSDKLWIFAGYDGNARLNDMWTIGLQDRELTCWEEVAQSGEIPPSCCNFPVAVCRDKMFVFSGQSGAKITNNLFQFEFKDKTWTRIPTEHLLRGSPPPPQRRYGHTMVAFDRHLYVFGGAADNTLPNELHCYDVDFQTWEVVQPSSDSEVGGAEVPERACASEEVPTLTYEERVGFKKSRDVFGLDFGTTSAKQPTQPASELPSGRLFHAAAVISDAMYIFGGTVDNNIRSGEMYRFQFSCYPKCTLHEDYGRLWESRQFCDVEFVLGEKEECVQGHVAIVTARSRWLRRKITQARERLAQKLEQEAAPVPREAPGVAAGGARPPLLHVAIREAEARPFEVLMQFLYTDKIKYPRKGHVEDVLLIMDVYKLALSFQLCRLEQLCRQYIEASVDLQNVLVVCESAARLQLSQLKEHCLNFVVKESHFNQVIMMKEFERLSSPLIVEIVRRKQQPPPRTPLDQPVDIGTSLIQDMKAYLEGAGAEFCDITLLLDGHPRPAHKAILAARSSYFEAMFRSFMPEDGQVNISIGEMVPSRQAFESMLRYIYYGEVNMPPEDSLYLFAAPYYYGFYNNRLQAYCKQNLEMNVTVQNVLQILEAADKTQALDMKRHCLHIIVHQFTKVSKLPTLRSLSQQLLLDIIDSLASHISDKQCAELGADI
notes: Expressed in HEK 293T, HeLa or U87 cells; used as cell lysate; also called LZTR1 wild type-FLAG; LZTR1 WT; not shown: FLAG tag at the C-terminus
